# Target: CEP-HSA (2-(ω-carboxyethyl)pyrrole derivative of HSA) (human) (UniProt P02768)
# Test: SPR
row,Kd [nM],Substance
1,11.8,TLR2-Fc chimera (from UniProt O60603 21-588) (Fc fusion)
2,6.53,CD36-Fc chimera (from UniProt P16671 1-472) (Fc fusion)

# From article PMC4522201
